In the NTF2 design screens of Basanta et al. (2020) one finds protease stability score data, which are given here for 47 sequences.

The series can be described thus: protease stability score; higher = more stable; yeast display proteolysis, trypsin and chymotrypsin.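 Note: relative to predicted unfolded state with 0 unfolded-like and 1 meaning tenfold more protease.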
As for “SEIQDISDLAFELIWRSLNTGDEHMLLELLDPDARTHVNGKTFHGRESAVHLFRYLLTLMGIDHIHIEDFKIEFQGDKVIIRMTTRSHQGDKEFHTRFLIIVRKVDGRWINEEISIHVE”, the protease stability score was 0.937.
For “DKENHLMRELTRLIVDYINTGDWKEFRKLADPHVRIVIEVGDKRIERHGMEDWLKLVRDRLEEIRTHIEVHDVEAQGDKAHLDGRIRLIVGEFEIVIESRIKVVSIDGKLKEISVHMV” the value was 1.48; for “SEEEEIARELSEEVYRHWHTGDFRMLERYFDPHVRIIYDGRDYHGREIASTVLRETNKEWRTESMEVKDVKFINGKLHVDISSDTLYNGKRVSTSIKIVSVKVDGQWVIHQMKYV”, 1.1; for “SEEENISKHLADLMFRAIFTGDWQELSRLLDPNARLRVDGVIHHGRETSVEFLERMFRTLGIDHYRVRHVNVQGEKVDIHSEVEYDGRKIDTKIHLVVVNGKVKSVDVRVD”, 1.97.
Consider “SEEEEDTERALRLELNLLMTGDEEQFWKNMDPHVRTHFNGQERHGREYATHVLRQLGVKHVRLHDVRIIGDKIDIDMRTNVDGRIFRVHIHSEKVNGRWHIHEFFIE”, for which the protease stability score worked out at 1.07.
Then “DHEEEEEHFLLEHMIEAIVTGDEDRLKELVDPHVRMDIDGVIIHGMDDIARWLKELRSIIRHFIPRDRKWQGNKIHIEGEVHGELRFDGRNQTDTFRIEIVSHKINGRWVIRSESFR”, with 1.18; and “SNEQKEFELLLRLMKEIIETGDEENFHRMVDPHARLQVGDKHHHGREEMSRWFEEFTKRFKNAKVHIDHVDSVDGQLHIDTTLIFDGVERRVEIIVRKVDGKWILEEVRII”, with 1.08.
“DEHKKESKETAEIVMELRKTGDWDEFSRLADPNVKIDVDVNGKRINNIGWESFVEFVLKERDEWRLEDYKIRDIRVIDGVAEIDGEITGVFNGQREKREFRIIVVVVNGRLKSVQLKFK”: the protease stability score came out at 1.29.
Regarding “SEIDEIAHKMAKEWTKDFVTGDEDHWKRLADPNTRVHINGVELHGRETSSEFKEKLRRHMGVDHMELRVRHVDLFNGRVHMETELIYRVGDKEIRTETHVDLDIVNGRIKEVRYEIR”, the protease stability score was determined as 0.734.
For “TEYEEHMKKMNEEILHSWITGDEDTLQHLADPNVRVEINGQETHGREQLYNTFHKAGFKHWEFDSIRFQGDKSDIRGQFEVDGQLREMEVEMRIVNGRLKIVRLDIR” the value was 0.977.
Then “HEDHKFLNEFVELWLRAEHTGDEDWLEENADPNTRVEVNGKSIHGMEYELRHLHHVLDRFKNMTFDTTVTRIDQQGDKAKVKVEIRLDIDGKDIRLEVDLIITKINGRWIVREIRYK”, with 1.22.
For “DHNKELWERIAEWLIRLQETGNEEELMKNMDPHTRLLVNGVTAHGRDTVTHYYREFLKELGVDVLELKRVHVQGEKVENDGQLHYNGKTHHSRINFFVINGRIHHIELHFE” the value was 0.745; for “DEQERHAEEFVREHMNAWVTGDWEMLIRQLDPNTRFIQGDKRHHGREALHYMRERVDHIKSVHIDRVDVYNGRVIIDIELIGLIDGRDVTFHVHIITKKIDGRWIVHELRHE”, 0.82; for “DEDKKLVEWVLRMLFEALRTGDEHALNNLFDPNVRIEQGDKRFHGREELIRLFHILGIDHIIIEDKDIKVFDGQLEIDGREVLIFDGRRFEIDMKIYIHKINGRWHVKSVHKD”, 1.78.
Sequence “SDEDKELEHVMKKFEDALSTGDENTLYSLLDPNVKLEIGDKEIHGMEEFVRVMKRHLHELGAKFRSITIEHWNIIGEKVRLHSKIILDFNGRDIFLNTHIVMFKFDGRWIFETFKIQ” had a protease stability score of 2.23.
Then “DEKTEISEELLKIFVDLLQTGDEDIFQDMMDPRAQVHVNGKRIHGREHIIHWFREAHRHLGVKHTHIHRVEIQGEKVYIDGRLHYNGRDFNTHLIFDVINGRVKSMELRQH”, with 1.09; and “DEDNEYVEYMHELIARALITGDFELWLKLMDPNTRMQIDGKEFHGREEFRKRLEHLRIDRVRYNVRHFHIIGDKLHVKSEFEIDGQIDGVDRHFSVEIRVLIWKINGRWILRDETTH”, with 1.69.
In turn, “DEDHELSREFLEELLKSWITGDEDVMREFADPNVRQHVDGKDLHGMEEWTRFVYHMRFHDVRIEHHRLFDGQVEIKFREDVTYNGRRVHIESRVRIVKVNGVWRLKELYVH” had a protease stability score of 0.858.
Turning to “DEDRRDAEYARDIWTETLETGDEDLLHELMDPHVRIEIGDKETHGRENYVKKFIRMGVRLKHRNDKHVTIVNGRVHLFGEFHVIINGRHHDLRVEIVIEKVNGRWVVKSIHVH”, the protease stability score was determined as 0.688.
Sequence “EEDQEIFEQAMRELINSNLTGNEHRMQELADPHVRLIVGDKTYIGRESIWRFLFEWRIDHIEIRSYDIQGDKVHVDIEVHMRYGDKSTVSRMELRAEKVNGRWHIHFIRIH” came in with a protease stability score of 1.75.
For “SEEEEYALKVLEDILKAFLTGDWKITEHLLDPDARLEINGRNFVGRELIRKYLEEYLRRIDVVRIKIRHVEVQGDKNHLEGELIEIQGDKHKSMDMKIHLVIINGRVRREHVRVE” the value was 2.15.
As to “SEDIEIVKQVLEFHIRSEITGDEDTMTELLDPHTRITIGDKHIHGREEAVRILLEIANHMRIHRFHVHQVHIYDGRLEIDMRIDREYDGKRRHQEVWWIFIKVNGRWYIHSIEIR”, the protease stability score worked out at 1.67.
Then “DEEEEMRRRQTTLFLEAWITGDWDLIQRLLDPHTRVDVNGVEIHGMEEFARWFREKKEKVKNLRSHLTDIELQGEKVILYGIDTVNGKTHKVRVKVDIVDGVIKEVRFDLR”, with 1.4; and “DEDTHMMELFNKTLHHVERTGDETLLNKLMDPHARLEIGDKHNHGRENVERERRRLLKELGHTQVEFRIREIRFQGDKLTIHGHTLVNGVHFDIRLLVWKVDGRWHMESFHLE”, with 1.46.
Then “SEEEEMTRLALEIFHRVYKTGDEDKYRDLADPHVRLVVGDKTFHGREHYLKFFRHIRIHHSHLDDFEIQGDKAILDTTIDVNINGKRHWIKTHVISVKVNGQWRLHSEELS”, with 0.178; and “SEDESAARHVIERMSHNLMTGDEEDLSDQFDPHVRVDINGVEIIGREELLRWLREWLRHAGVSKFNVHIIPREIRLIGDFMEINGELRMNYNGKEERTETRIIVFKFNGKWSIERMRIH”, with 1.72.
Then “DEEKEISELLFRLIFHMLETGDEELSRRLLDPNTRTIWNGRHLHGREASELMRRILHHFVKGATTEIKDLKVQGDWMHFHVTIHIGDKRIRTEIIVHTIDGRIDSMEFRVT”, with 1.39.
“DDRYRLVEHMSRHFFENWLTGDFDRLVELADPTVRSHFEYGDKEILNIGMEEHVKMERHWREKMGANHLFLDDVRIQGNKAHIHGQLDVGDKHNRARLELNIVDGRIKEIYIEIR” had a protease stability score of 0.018.
For “DEEEKYVEDIAREFLHAMRTGDEEWNKELADPHVRMHLHQGDYILNLHGRDLFTRVIRYLVDQWRLEIRIENFDSIGNKIEVHGTIILKQGDKSIKRKSIIHIDVVNGRLKEVHIHLQ” the value was 0.152; for “SEEEHEIRRAVEHWYRSLHTGDEEESIDLVDPHTITIVNGREVHGRHLMYEIMRKFKNAKIEFEITHHEVVNGRADVNMRLTVHIGDKTYETIIHLHTEKVNGRWTVRHWEVK”, 1.46.
Sequence “SDEETITREYIRILIKMMRTGDESTLTRLADPHVRVDINGKDLHGRESLVEEMHKLIRDLGVERIEVHFRNIHIQGEWIVIHIDLQIGDKRFEVRDIALKIDGRWVHKSIEIQ” registered a protease stability score of 1.33.
Consider “SEVQESIKEVIEIWNKALETGDWHRLTELADPDTRVEIGDKDIIGREAVTSELEKVTHKFKNLRIDEIHIERLEIQGEKVELHGIIRGTVNGQHRFYHTEFIIVKINGRWRLRVIYFL”, for which the protease stability score was found to be 1.79.
For “DEDHRLWEEMIRILHDALRTGDEDMLEHLMDPDTRLHVGDKNVHGRRDMKYFWEILGVDRVELVIRSFRLIDGKAEIDGESRFNGVTRRVRLIHNKINGRWLTESIHIH”, the protease stability score turned out to be 0.745.
Consider “SDDEREDRIAIDILLRSTETGDEDTVRHMFDPNARVDVDGREIHGRDASKLFMERVDHIHEVKIDDIKTINGRVHNEGTWYGEYGDKKSELKVHWVLLKIDGRWLIKEVRIR”, for which the protease stability score amounted to 1.57.
Then “DEEDKWDELLLEILIRIEKTGDEEKWLRFLDPHVRLDVDGQEVHGREEVVRVQKEWKERLGVKHIVIKRTKVVNGRIDMDKVMNVDGVNIKVHYHYHLVNGVLHEVEVRLE”, with 0.992; and “DHTKKMAEEALRDFWRDFRTGDEDSLNKMADPNVRILIGDKEVVGRERMVELFREVLKKYKNARVITDIEDLDDQGNWVHSDVRFHLHVGDKTVDIEREIVMRKVNGRWYIETHVVK”, with 0.397.
“DEEEELLRRLIKMLLHLMRTGDEDETANLLDPNVRIEWNGRTFHGREEAKRWLFELLSRVDVVKDIKIHDYDRYGDFVLLDVRLHGEIDGVPTETIFIIIIRKINGRWMIHQIYLE” displayed a protease stability score of 1.42.
Then “DEKQRDIEEMARRFVEIFHTGDEENYLELADPDMRLDVGDKHYHGREDVHKWLHEELRRIKNATIRIKHIHVQGDKVHLEITIEIGDKHRKSHIHLQIVDGVIKRIEIRWS”, with 1.09.
Then “DEDKKVAELVMRLWEHTQRTGDPDMMSKLADPNVRVDVNGREIHGRERLFEHLEHMRINHFRLRDREIHVQGDYVKIRIEGELDGDINGREDRHRIELIIVVEKINGRWFMTEVIVIVK”, with 1.37; and “DELREDSERAEEWLITASETGNEEDILKLADPNTRIDINGKDLHGRESLEHFIRRYKGVTVRIRHRDIINGKLHLDTELRIDGVTLRTELIITKVNGRWYLEEQIVR”, with 1.07.
For “SEEEEESRHAIEMTLKTLITGDEHMIQDLADPRAQTHYGDKEYHGREELFRLMHEFILKIKNLRIELHDHHIQGDKIILDVRWRFDGKSFHVTIESRKINGRWLHHIFIVK” the value was 0.582.
“NEDEDKMKEWIETLHKSLETGDEKTLSKLFDPRVQYDIGDKKYHGWRHYLELILRIDHERREIHHVEVVNGRVEIDVRVHIHINGQDYEKKTILHVEKIDGKWLNKKVQIV”: the protease stability score stood at 1.16.
Take “SEDDELSKHAFDMLRDSIHTGDEHLNNKLFDPHVRLYYGDKLLIGREHLTRLLFFWAKELRIELRVRHYESQGEKVDIHVELIMRVNGREQKHDVILYLEKVNGRWIMHSIEIR”: the protease stability score was found to be 0.775.
Then “DEEEEALEEVLRLLSKAILTGDEDQMRELVDPHVRVHVGDKDLIGWDRYKRHTKEMRIIIHRFELRDKRRVGNKLEFDGHMDYELIVNGRTWKHREDMFMVIVKVNGKWHIHYEQVD”, with 0.88; and “DEDEHNVREFIERIMRILETGDEHDFKRMADPDVRFEIGDKLIHGMETWSEIHTDELKRIPNLKIQLRIHDVHAYNGRAHVHSHFVIEFDGKRHIIETEMFIIKINGQWHLRSIKYK”, with 1.46.
Then “DKEEVEKIAREALEAAVKGDEDKLKTYLGPDVKYVLGDQEYQGQQVAELVMKLIKKDGARLQLETLKVEGNTVQAQYQFHVDGVTRKAHITMKVKGGRVDEWQVHIDDHAKEALKKG”, with 1.89; and “DREKEFVKEFFTMLHNVLHTGDFKLFEKMLDPRYRVEIGDKEAHGREEVLRWFHEYMRIAGIDHIELHLHNFDYQGDKVRMDTIVILIQGDKTFHLDVRIVVKKIDGQWINQTERIH”, with 1.42.
